For one experiment, the target named is T1, STAT3 (Homo sapiens, UniProt P40763).
T1 construct: made in house; host or cells: Sf9 insect cells co-infected with baculoviruses for STAT3 and Src or Fes (cell extracts)
Nature of the experiment: Disruption of STAT3 DNA-binding activity in vitro by synthetic peptides. Conditions: ne = no effect. From the text:
A novel non-radioactive, 96-well plate based assay is used for measuring STAT3 DNA-binding activity (FIG. 30). In this high throughput assay, a biotinylated hSIE probe is used in place of the ^32P-labeled hSIE probe used for EMSA to detect binding of STAT3 dimers. The hSIE oligonucleotide is a high-affinity mutant of the original sis-inducible element in the C-fos gene promoter that binds STAT3. The biotinylated hSIE probe is immobilized onto a streptavidin-coated 96-well plate, permitting a large number of compounds and concentrations to be tested in a single experiment. The source of activated STAT3 is extracts derived from Sf9 insect cells co-infected with baculoviruses encoding STAT3 and either the Src or Fes tyrosine kinases. Using this baculovirus expression system, high levels of activated STAT3 dimers are produced as a result of phosphorylation by the co-expressed tyrosine kinases. Activated STAT3 is added to the 96-well plate in the presence or absence of the compounds to be screened. After incubation for 30 min with compounds, STAT3 dimers that bind to the biotinylated hSIE probe are detected with an anti-Stat3 primary antibody (Santa Cruz Biotechnology) followed by a horseradish-peroxidase conjugated secondary antibody. Immune complexes are detected by colorimetric conversion of the substrate, 3,3′,5,5′-tetramethylbenzidine (TMB) peroxidase, using a conventional ELISA plate reader. Epitope tagged versions of STAT3 expressed from baculoviruses have also been generated that are detected using the cognate primary antibodies. We find these anti-tag antibodies to be more sensitive and/or specific.
To facilitate these high throughput, 96-well plate assays, the screening is automated using an available Beckman 2000 Biotek robotics workstation coupled to an ELISA plate reader. The computer-programmed robotics workstation has multi-volume, multi-component mixing capability that greatly accelerates all of the high throughput assays. Inhibition of STAT3 DNA-binding activity in this assay is readily detected as a loss of signal relative to the controls without added compound. As a positive control and to establish the DNA-binding specificity, activated STAT3 is added in the presence of either excess free hSIE oligonucleotide for competition or a non-binding oligonucleotide, FIRE. […] As a negative control, extracts from IFNa-stimulated cells are used as a source of STAT1, which also binds the hSIE. Initial screens are performed at high concentrations of compounds (e.g., 100 uM), and active compounds are further tested in concentration-response studies.
A total of 19 synthetic peptides are tested based on the PY*LKTK sequence (Y*=phosphotyrosine) and their IC50 is determined in terms of disruption of STAT3 DNA-binding activity in vitro (Table 3).

The next experiment deals with T2, Full length STAT3 (Homo sapiens, UniProt P40763).
T2 construct: Full-length GST-Stat3, immobilized to glutathione-Sepharose beads, is used to screen a display peptide library; made in house; host or cells: E. coli
T2 sequence (P40763 whole entry, species assumed): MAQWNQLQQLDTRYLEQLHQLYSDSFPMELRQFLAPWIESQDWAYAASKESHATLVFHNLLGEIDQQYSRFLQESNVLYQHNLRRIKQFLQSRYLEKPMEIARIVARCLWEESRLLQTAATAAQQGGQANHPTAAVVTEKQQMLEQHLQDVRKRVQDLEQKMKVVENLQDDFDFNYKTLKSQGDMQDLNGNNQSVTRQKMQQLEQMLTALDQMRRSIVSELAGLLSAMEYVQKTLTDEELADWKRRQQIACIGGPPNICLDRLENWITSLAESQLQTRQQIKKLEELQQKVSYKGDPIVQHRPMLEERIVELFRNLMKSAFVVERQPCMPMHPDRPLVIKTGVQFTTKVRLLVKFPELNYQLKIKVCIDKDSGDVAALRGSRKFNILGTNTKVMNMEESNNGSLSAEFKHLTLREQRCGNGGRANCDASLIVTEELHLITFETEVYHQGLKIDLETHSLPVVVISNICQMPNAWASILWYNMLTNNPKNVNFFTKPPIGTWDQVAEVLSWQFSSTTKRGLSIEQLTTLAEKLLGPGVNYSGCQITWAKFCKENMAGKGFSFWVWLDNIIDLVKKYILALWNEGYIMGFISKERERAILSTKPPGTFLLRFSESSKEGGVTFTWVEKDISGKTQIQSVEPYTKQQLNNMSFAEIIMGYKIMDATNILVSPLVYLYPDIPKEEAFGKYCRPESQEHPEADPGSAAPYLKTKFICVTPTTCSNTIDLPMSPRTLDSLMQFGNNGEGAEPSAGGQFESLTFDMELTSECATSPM
Nature of the experiment: Phage display panning, 12-mer peptide library, on full-length GST-Stat3. Type of experiment: binding. From the text:
Phage display peptide libraries are used because of two powerful features. First, phage libraries generate an enormous diversity of peptides that can be subjected to affinity selection by panning. […] These combinatorial libraries are based on random short peptide sequences fused to a coat protein of bacteriophage, herein pIII of the filamentous coliphage MI3. Panning of the peptide library using an immobilized target, herein STAT3 fusion proteins bound onto beads, is used to select for peptide sequences that bind to STAT3. […] Peptide sequences that occur at elevated frequencies are good candidates for ST4T3-specific binding peptides. […] These cyclic peptides have the advantage of reducing entropic freedom, thereby potentially increasing binding specificity and affinity relative to linear peptides. Another variation on this approach is to combine “affinity maturation” with the phage display peptide library [Scott & Smith, 1990, Science, 249:386-390].
The GST-Stat3 fusion protein is purified on glutathione-Sepharose beads according to standard methods. The first library screened is obtained from a commercial source (New England Biolabs) and consists of random 12 amino acid sequences with a complexity of 1.9×10^9 independent transformants, each theoretically represented approximately 70 times in 1.4×10^11 phage particles. […] This is due to the inability of peptidases to cleave adjacent to proline residues in the peptide leader sequence, which is required for secretion. The titer of the original phage library after one round of amplification is 1.4×10^13 pfu/ml (plaque forming units per ml).
For panning phage with the STAT3 fusion protein, 50 ul of glutathione-Sepharose beads bound to purified GST-Stat3 fusion protein are washed with phosphate buffered saline (PBS). The beads are then incubated with 10 ul of phage suspension (1.4×10^11 virions) in 200 ul final volume of PBS for 30 min at room temperature with occasional mixing. The beads are gently pelleted in a microcentrifuge, and washed 10 times with 1 ml of PBS to remove unbound phage. Background of non-specifically bound phage is reduced by a variety of methods, including pre-blocking the beads with bovine serum albumin, pre-clearing the phage library with GST-glutathione-Sepharose beads, and washing the beads with increasing salt concentrations. Bound phage virions are eluted from the beads by incubation with a molar excess of glutathione for 30 min at room temperature. A small aliquot of the phage eluate is titered and the rest is amplified on the E. coli ER2537 host strain. Following amplification, the phage are purified by polyethylene glycol (PEG) precipitation and then the titer is determined again. Using 1-2×10^11 phage particles from the amplified eluate as input, the above binding and amplification steps are repeated a total of 3 to 4 times. After the final titering step, 40-100 isolated plaques are amplified for DNA sequencing to identify a consensus binding sequence. Sequence analysis is performed by automated sequencing on a Pharmacia ALF sequencer.
Full-length GST-Stat3, immobilized to glutathione-Sepharose beads, is used to screen a display peptide library containing 1.9×10^9 random 12-mer peptides positioned at the N-terminus of a minor coat protein (pIII) of the M13 filamentous bacteriophage. Based on their frequencies shown in Table 1, the five most promising peptides from a 12-mer peptide library that bind to full-length STAT3 are listed.

In experiment [1] the test system is Bcl-xL overexpressing U266 cells. Nature of the experiment: Drug-induced apoptosis in U266 cells overexpressing Bcl-xL. Format: cell-based, human. Particulars: stable U266 clones overexpressing Bcl-xL; 24 h for melphalan and mitoxantrone. The protocol: FIG. 23 Enforced Overexpression of Bcl-x Confers Resistance to Chemotherapy. Panel A: U266 cells are transfected with a CMV expression vector encoding Bcl-x, tagged with the FLAG epitope. Several stable, independent clones overexpressing Bcl-xL, as well as empty vector controls (Neo), are isolated and analyzed by Western blot with antibodies to Bcl-xL, or the FLAG epitope tag. B: The indicated cell lines are incubated with either melphalan (LPAM) or mitoxantrone for 24 h, and apoptosis is monitored by AnnexinV-FITC staining and flow cytometry. Overexpression of Bcl-xL protects the cells from chemotherapy-induced apoptosis.
These Bcl-xL overexpressing cells are resistant to apoptosis induced by AG490, as predicted since the ectopic Bcl-xL is expressed from a CMV promoter and is thus independent of JAK-STAT signaling. […] These findings support one embodiment of the present invention, that Bcl-x confers resistance to chemotherapy-induced apoptosis, and therefore that inhibition of STAT3 signaling promotes chemotherapy-induced apoptosis.

Another experiment has as its system MPC11 tumors. As to the kind of experiment: MPC11 myeloma tumor growth in vivo. Conditions: MPC11 tumor-bearing mice, rIL-12 alone, 200 ng every second day. Further details: species or system BALB/c mice. The protocol: Mice and tumor formation in vivo. Six- to eight-week old female BALB/c mice are obtained from the National Cancer Institute (Frederick, Md.). Cohorts of 3-5 mice per group are used for these experiments. Mice are shaved on the right flank and injected subcutaneously (s.c.) with 5×10^5 of either MOPC or MPC11 cells in […] of PBS to induce tumors.
In vivo treatment with AG-490 and IL-12. When tumors reach about 5 […] in diameter, AG-490 treatment of tumors is initiated and continued daily for 7-10 days. For MOPC tumors, injections of 0.85 mg/day of AG-490 are given intratumorally, supplemented with 0.5 mg/day of AG-490 i.p. For MPC11 tumors, the intratumoral treatment is halved while the i.p. dose remains the same. Control mice receive 50% DMSO vehicle alone in the same volume as the AG-490 treatment group. Recombinant IL-12 is given s.c. at either 100 ng or 200 ng every other day. Tumor growth is monitored daily by measuring two perpendicular tumor diameters with a caliper, and tumor volume was calculated according to the formula V=0.52*a*b(a+b)/2 (a=smallest superficial diameter; b=largest superficial diameter).

Another experiment concerns U266 cells. As to the kind of experiment: Fas-mediated apoptosis (Annexin V, flow cytometry) in U266 cells. Particulars: 500 ng/ml CH-11 or 100 ng/ml Fas ligand. Format: cell-based, human. The protocol:
For surface detection of the Fas receptor, 10^6 cells are suspended in […] PBS with 2.5 mg/ml mouse IgM (Sigma) and […] UB2 antibody (MBL) or IgG1, isotype control serum (Dako). Following 30 min incubation at room temperature, cells are washed with PBS, and incubated in the dark for 30 min with goat anti-mouse Ig-FITC. Fluorescence is measured on a FACScan flow cytometer and analyzed using CellQuest software (Becton Dickinson). For cell cycle analysis, 10^6 cells are fixed in ice-cold ethanol for a minimum of 2 h, washed with PBS, and stained with 5 mg/ml propidium iodide (PI) and […] at 37° C. for 30 min prior to analysis by flow cytometry. […] Apoptosis is measured by staining with Annexin V-FITC (Clontech) and flow cytometry analysis. Fas-specific death is calculated as (% Annexin V positive cells in the CH-11 treated population)−(% Annexin V positive cells in the IgM control population). Programmed cell death in cells transfected with the bicistronic green fluorescent protein vectors (pIRES-EGFP or pIRES-Stat3b) is analyzed after staining with Annexin V-PE (Pharmingen) by two color flow cytometry analysis. Apoptotic morphology of DAPI-stained nuclei and green/red fluorescence is confirmed by fluorescence microscopy.

Non-standard residues stand in square brackets, D forms with d. No end group written: not given here. pY = N[C@@H](Cc1ccc(OP(=O)(O)O)cc1)C(=O)O

T1 sequence (P40763 whole entry, species assumed): as above

Regarding “PYLKTK [synthetic peptide, unphosphorylated]”, at STAT3, the “IC50, disruption of STAT3 DNA-binding activity” value (“IC50, disruption” for short) is reported as “ne”.
As to SHPWNAQRELSV (listed as Homo sapiens), in the experiment with Full length STAT3, the “Frequency (out of 100 clones)” value is recorded as 9%.
Take PFLKTK: the “IC50, disruption” value on STAT3 is recorded as “ne”.
Consider “PY*AKTK (P[pY]AKTK; listed as Homo sapiens) [synthetic peptide, Y* = phosphotyrosine]”, for which the “IC50, disruption” value with STAT3 is on record as “ne”.
In the case of QDVHLTQQSRYT (listed as Homo sapiens), the “Frequency (out of 100 clones)” value with Full length STAT3 came out at 13%.
Regarding HY(S/P)PILVYQPSW, in the experiment with Full length STAT3, the “Frequency (out of 100 clones)” value was determined as 25%.
Regarding FSYPLTRAPLNM (listed as Homo sapiens), the “Frequency (out of 100 clones)” value with Full length STAT3 is recorded as 8%.
“Y*LK ([pY]-Leu-Lys; listed as Homo sapiens) [synthetic peptide, Y* = phosphotyrosine]”: the “IC50, disruption” value with STAT3 is listed as “ne”.
On to `N[C@@H](Cc1ccc(N(CCCl)CCCl)cc1)C(=O)O` [melphalan], for which the “apoptosis induced in Bcl-xL overexpressing cells” value in experiment [1] is “resistant”.
As for YPAPQPLVTKTS (listed as Homo sapiens), the “Frequency (out of 100 clones)” value in the experiment with Full length STAT3 was 8%.
Turning to `O=C1c2c(O)ccc(O)c2C(=O)c2c(NCCNCCO)ccc(NCCNCCO)c21` [mitoxantrone], the “apoptosis induced in Bcl-xL overexpressing cells” value in experiment [1] is on record as “resistant”.

B1: rIL-12: recombinant IL-12 (Genetics Institute) (protein, UniProt P29459 23-219; P29460 23-328, looked up)
Interleukin-12 subunit alpha: RNLPVATPDPGMFPCLHHSQNLLRAVSNMLQKARQTLEFYPCTSEEIDHEDITKDKTSTVEACLPLELTKNESCLNSRETSFITNGSCLASRKTSFMMALCLSSIYEDLKMYQVEFKTMNAKLLMDPKRQIFLDQNMLAVIDELMQALNFNSETVPQKSSLEEPDFYKTKIKLCILLHAFRIRAVTIDRVMSYLNAS
Interleukin-12 subunit beta: IWELKKDVYVVELDWYPDAPGEMVVLTCDTPEEDGITWTLDQSSEVLGSGKTLTIQVKEFGDAGQYTCHKGGEVLSHSLLLLHKKEDGIWSTDILKDQKEPKNKTFLRCEAKNYSGRFTCWWLTTISTDLTFSVKSSRGSSDPQGVTCGAATLSAERVRGDNKEYEYSVECQEDSACPAAEESLPIEVMVDAVHKLKYENYTSSFFIRDIIKPDPPKNLQLKPLKNSRQVEVSWEYPDTWSTPHSYFSLTFCVQVQGKSKREKKDRVFTDKTSATVICRKNASISVRAQDRYYSSSWSEWASVPCS
For B1, the tumor growth entry in the experiment with MPC11 tumors is on record as “only slightly inhibits”.

B2: Fas ligand: Fas ligand (Alexis) (protein, UniProt P48023 130-281, looked up)
Tumor necrosis factor ligand …: QIGHPSPPPEKKELRKVAHLTGKSNSRSMPLEWEDTYGIVLLSGVKYKKGGLVINETGLYFVYSKVYFRGQSCNNLPLSHKVYMRNSKYPQDLVMMEGKMMSYCTTGQMWARSSYLGAVFNLTSADHLYVNVSELSLVNFEESQTFFGLYKL
Regarding B2, the Fas-mediated cell death entry with U266 cells was “completely resistant”.

Values taken from patent publication US9345682B2, “Inhibition of STAT3 signal transduction for human cancer therapy” (University of South Florida, priority 1999, dated 2016).
